Data on nine substances can be found in PMC3326523, “Histone Recognition and Large-Scale Structural Analysis of the Human Bromodomain Family” (Cell, 2012).

The target in test [1] is CECR2 bromodomain (human) (UniProt Q9BXF3). Description: ITC; peptide (mM stock) titrated into bromodomain (about 50 μM), by the concentrations in the tables; 10 or 15°C, 50 mM HEPES pH 7.5, 150 mM NaCl; single binding site model.
For test [2], the target named is TAF1(1/2), tandem bromodomains of TAF1 (human) (UniProt P21675). The test is described as above.
TAF1(1/2), tandem bromodomains of TAF1 (human), sequence (P21675 whole entry): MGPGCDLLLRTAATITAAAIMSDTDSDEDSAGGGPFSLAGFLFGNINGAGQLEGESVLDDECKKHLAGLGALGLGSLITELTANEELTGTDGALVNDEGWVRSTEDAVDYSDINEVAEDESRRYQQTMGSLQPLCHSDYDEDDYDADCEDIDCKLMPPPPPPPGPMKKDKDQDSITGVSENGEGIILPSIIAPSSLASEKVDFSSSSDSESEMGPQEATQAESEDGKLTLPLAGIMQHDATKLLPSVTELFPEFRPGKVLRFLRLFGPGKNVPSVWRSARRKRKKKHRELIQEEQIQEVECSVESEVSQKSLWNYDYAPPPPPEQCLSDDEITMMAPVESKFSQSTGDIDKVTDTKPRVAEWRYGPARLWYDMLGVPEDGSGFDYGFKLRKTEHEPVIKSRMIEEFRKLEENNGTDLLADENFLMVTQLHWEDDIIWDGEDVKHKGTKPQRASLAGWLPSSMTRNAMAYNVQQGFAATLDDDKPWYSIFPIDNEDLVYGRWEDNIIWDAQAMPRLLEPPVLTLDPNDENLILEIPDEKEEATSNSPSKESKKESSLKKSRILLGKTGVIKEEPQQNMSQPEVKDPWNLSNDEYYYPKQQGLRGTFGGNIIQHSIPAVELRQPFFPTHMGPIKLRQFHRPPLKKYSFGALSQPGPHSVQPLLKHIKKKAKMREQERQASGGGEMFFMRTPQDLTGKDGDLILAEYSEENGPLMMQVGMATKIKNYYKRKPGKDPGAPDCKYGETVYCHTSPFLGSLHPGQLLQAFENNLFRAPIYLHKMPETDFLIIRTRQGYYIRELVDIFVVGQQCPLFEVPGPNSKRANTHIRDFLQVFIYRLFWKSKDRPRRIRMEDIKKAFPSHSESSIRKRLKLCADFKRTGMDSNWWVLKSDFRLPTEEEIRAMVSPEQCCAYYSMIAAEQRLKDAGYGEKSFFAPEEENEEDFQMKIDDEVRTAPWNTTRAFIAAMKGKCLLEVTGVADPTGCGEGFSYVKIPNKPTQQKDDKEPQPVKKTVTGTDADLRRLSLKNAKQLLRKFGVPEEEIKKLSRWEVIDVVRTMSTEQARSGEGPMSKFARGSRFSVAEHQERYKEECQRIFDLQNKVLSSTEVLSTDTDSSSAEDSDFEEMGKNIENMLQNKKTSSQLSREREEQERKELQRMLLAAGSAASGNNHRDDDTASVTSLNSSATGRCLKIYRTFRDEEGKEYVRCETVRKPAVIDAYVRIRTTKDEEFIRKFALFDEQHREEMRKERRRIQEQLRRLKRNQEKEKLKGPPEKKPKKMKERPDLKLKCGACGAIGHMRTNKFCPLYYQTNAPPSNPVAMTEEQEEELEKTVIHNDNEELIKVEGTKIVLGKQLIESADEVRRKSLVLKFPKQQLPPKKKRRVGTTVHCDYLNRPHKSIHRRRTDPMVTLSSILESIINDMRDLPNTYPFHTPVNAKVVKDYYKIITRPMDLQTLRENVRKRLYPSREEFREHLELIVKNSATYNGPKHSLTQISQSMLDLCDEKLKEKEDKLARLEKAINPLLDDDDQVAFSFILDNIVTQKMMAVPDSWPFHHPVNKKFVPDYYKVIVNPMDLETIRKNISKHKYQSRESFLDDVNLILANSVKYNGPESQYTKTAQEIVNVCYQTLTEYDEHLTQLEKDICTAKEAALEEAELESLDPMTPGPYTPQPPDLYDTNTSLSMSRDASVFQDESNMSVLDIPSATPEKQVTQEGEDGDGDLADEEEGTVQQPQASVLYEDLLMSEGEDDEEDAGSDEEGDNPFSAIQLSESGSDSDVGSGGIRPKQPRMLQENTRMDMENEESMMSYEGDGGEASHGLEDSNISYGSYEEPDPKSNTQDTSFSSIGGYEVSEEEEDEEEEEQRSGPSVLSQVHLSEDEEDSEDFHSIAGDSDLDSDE
The target of test [3] is TAF1(2), second bromodomain of TAF1 (human) (UniProt P21675). The description is as above.
TAF1(2), second bromodomain of TAF1 (human), sequence (P21675 whole entry): as above
Test [4] concerns the target PCAF bromodomain (human) (UniProt Q92831). Described as above.
Test [5] deals with SMARCA2 bromodomain (human) (UniProt P51531). The description is as above.
Test [6] deals with BAZ2B bromodomain (human) (UniProt Q9UIF8). The description is as above.
BAZ2B bromodomain (human), sequence (Q9UIF8 whole entry): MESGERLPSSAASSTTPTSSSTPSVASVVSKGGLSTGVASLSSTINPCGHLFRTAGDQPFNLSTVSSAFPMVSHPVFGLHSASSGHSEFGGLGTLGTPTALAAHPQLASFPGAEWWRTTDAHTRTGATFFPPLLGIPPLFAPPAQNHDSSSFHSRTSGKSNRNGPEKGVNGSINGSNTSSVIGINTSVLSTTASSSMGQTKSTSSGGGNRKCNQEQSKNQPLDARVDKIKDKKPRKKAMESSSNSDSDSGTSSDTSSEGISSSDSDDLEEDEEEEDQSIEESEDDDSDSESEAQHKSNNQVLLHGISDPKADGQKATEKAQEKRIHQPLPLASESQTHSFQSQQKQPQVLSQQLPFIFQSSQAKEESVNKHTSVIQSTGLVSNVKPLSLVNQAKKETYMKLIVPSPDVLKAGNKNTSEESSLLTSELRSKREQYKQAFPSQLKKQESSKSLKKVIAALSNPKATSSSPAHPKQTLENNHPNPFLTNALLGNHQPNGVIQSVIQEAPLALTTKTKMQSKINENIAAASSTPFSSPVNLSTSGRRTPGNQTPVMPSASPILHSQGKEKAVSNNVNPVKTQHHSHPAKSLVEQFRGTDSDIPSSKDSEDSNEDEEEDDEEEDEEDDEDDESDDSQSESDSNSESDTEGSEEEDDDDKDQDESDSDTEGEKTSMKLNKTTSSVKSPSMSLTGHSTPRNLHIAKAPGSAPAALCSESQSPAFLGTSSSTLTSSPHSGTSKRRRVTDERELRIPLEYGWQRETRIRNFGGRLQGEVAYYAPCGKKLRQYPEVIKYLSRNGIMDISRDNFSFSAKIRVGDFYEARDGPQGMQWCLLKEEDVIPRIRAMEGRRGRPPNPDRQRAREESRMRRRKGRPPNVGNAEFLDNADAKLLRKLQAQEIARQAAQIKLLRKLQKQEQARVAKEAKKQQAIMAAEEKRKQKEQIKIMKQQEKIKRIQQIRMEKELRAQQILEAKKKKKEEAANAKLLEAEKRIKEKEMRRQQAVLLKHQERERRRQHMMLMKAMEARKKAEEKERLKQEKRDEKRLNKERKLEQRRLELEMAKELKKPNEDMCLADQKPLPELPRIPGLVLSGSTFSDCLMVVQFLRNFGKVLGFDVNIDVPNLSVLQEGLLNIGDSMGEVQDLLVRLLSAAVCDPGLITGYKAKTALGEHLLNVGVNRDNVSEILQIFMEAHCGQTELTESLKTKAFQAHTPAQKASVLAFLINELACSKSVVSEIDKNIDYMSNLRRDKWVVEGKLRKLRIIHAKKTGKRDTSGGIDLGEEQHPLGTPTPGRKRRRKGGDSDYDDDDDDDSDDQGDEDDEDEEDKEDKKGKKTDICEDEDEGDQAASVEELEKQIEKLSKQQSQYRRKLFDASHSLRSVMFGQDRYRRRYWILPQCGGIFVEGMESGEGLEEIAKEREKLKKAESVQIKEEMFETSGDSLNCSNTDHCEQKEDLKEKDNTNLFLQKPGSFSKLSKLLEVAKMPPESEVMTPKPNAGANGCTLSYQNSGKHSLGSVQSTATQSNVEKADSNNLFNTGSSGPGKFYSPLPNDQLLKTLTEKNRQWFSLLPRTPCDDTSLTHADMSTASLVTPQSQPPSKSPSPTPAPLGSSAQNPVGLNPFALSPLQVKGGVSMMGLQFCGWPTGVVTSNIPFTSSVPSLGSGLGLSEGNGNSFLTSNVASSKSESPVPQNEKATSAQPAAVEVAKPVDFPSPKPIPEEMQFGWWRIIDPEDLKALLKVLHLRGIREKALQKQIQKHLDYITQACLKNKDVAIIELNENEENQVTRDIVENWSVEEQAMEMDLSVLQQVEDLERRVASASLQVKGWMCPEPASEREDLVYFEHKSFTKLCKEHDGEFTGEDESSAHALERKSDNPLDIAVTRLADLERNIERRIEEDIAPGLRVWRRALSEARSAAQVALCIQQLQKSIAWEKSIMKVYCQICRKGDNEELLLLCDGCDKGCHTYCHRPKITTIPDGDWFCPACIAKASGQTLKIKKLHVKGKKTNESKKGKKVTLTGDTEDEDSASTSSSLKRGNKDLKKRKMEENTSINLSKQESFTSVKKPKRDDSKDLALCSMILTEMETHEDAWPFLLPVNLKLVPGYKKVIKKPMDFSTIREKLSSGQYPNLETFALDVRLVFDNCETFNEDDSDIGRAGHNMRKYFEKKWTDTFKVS
Test [7] concerns the target CREBBP bromodomain (human) (UniProt Q92793). Described as above.
Test [8] deals with BRD3(1), first bromodomain of BRD3 (human) (UniProt Q15059). The description is as above.
BRD3(1), first bromodomain of BRD3 (human), sequence (Q15059 whole entry): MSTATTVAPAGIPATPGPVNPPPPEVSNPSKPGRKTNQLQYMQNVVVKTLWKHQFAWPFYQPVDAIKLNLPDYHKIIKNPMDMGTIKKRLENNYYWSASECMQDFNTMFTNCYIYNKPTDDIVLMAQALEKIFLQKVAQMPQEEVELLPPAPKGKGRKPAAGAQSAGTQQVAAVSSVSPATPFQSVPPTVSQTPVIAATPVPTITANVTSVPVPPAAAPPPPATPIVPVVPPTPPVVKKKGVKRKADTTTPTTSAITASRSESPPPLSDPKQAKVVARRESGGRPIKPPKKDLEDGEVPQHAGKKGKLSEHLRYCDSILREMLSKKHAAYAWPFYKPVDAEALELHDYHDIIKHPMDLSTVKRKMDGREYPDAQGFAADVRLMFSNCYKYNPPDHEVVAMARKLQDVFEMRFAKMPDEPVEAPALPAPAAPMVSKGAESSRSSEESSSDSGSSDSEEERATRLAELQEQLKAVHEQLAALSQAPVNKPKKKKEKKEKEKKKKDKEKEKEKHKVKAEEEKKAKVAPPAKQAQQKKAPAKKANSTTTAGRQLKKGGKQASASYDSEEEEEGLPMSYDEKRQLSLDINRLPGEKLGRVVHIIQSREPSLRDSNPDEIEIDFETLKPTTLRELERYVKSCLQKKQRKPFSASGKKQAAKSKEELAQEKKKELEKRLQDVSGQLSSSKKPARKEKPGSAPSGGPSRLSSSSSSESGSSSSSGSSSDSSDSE
Test [9] concerns the target KIAA1240 bromodomain (human) (UniProt Q9ULI0). The test is described as above.
In test [10] the target is BRD3(1), first bromodomain of BRD3 (human) (UniProt Q15059). Kind of test: ITC; as a1; rows with N of about 0.5 or 0.25: two or more bromodomains on one peptide, apparent binding constants, events not deconvoluted.
The target in test [11] is BRD3(2), second bromodomain of BRD3 (human) (UniProt Q15059). The description is as above.
The target of test [12] is H3K14ac peptide (ITC) (human). Description: ITC; VP-ITC or ITC200, 10 or 15°C, 50 mM HEPES pH 7.5, 150 mM NaCl; in most cases single binding site model.
Test [13] concerns the target H3pS10K14acK18ac peptide (ITC) (human). The test is described as above.
Test [14] concerns the target EP300 bromodomain (UniProt Q09472). Kind of test: SPOT peptide array, His6-BRD overlay. The following applies: reference: H3K4acK9ac peptide; sites T3.
Test [15] deals with WDR9 second bromodomain, WDR9(2) (UniProt Q9NSI6). Description: SPOT peptide array, His6-BRD overlay. To be noted: reference: H3K4acK9ac peptide; sites T3.

bromodomain of CREBBP, tag removed (ITC), sequence (Q92793 1081-1197): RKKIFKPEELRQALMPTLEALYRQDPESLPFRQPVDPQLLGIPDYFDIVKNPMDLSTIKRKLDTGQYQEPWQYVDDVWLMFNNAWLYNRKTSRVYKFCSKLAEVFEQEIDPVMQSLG
CECR2 bromodomain (human), sequence (Q9BXF3 424-538): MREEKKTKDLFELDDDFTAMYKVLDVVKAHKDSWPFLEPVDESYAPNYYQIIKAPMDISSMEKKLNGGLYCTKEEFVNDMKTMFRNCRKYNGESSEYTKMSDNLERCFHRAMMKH
CREBBP bromodomain (human), sequence (Q92793 1081-1197): as the sequence (Q92793 1081-1197) above

With H3K9 peptide KQTARKacSTGGKY, in test [1], the stoichiometry N amounted to 1.
In [2], H3K9/K14 peptide KQTARKacSTGGKacAPRKQY had a Kd of 339 µM and a stoichiometry N of 1.02.
For “H3K9/S10/K14 peptide KQTARKacpSTGGKacAPRKQY”, in that order: 150 µM and 1.05.
Consider H3K14 peptide KSTGGKacAPRKQY, for which the Kd was 306 µM in [3], 179 µM in test [2] and 7.6 µM in [6]. In addition, the stoichiometry N came out at 1.01 in test [2]; 1.01 in [4]; 1.05 in [5]; 1 in test [6]; 1 in test [1].
The substance H3S10K14K18 peptide KpSTGGKacAPRKacQY showed a stoichiometry N in test [7] of 1.
In turn, H4K8 peptide RGKGGKacGLGKGY yielded a Kd in test [8] of 211 µM. The stoichiometry N in test [8] and in test [9] was 1 throughout.
Take H4K12/16/20 peptide GKacGGAKacRHRKacV: in test [10], the Kd came to 31.4 µM and the stoichiometry N worked out at 0.51. Also, the stoichiometry N in test [11] was 0.5.
Consider “bromodomain of CREBBP, tag removed (ITC) (from UniProt Q92793 1081-1197) (domain or fragment)”, for which the results for the Kd in test [12] and in test [13] were 733 µM and 131 µM, respectively.
“histone H3 N-terminal tail (from UniProt P68431) H3 pT3K4acK9ac peptide”: the “binding against the reference” value in test [14] and in test [15] was “gained” in each case.
